According to article PMC9748339, “Co-crystalization reveals the interaction between AtYchF1 and ppGpp” (Frontiers in Molecular Biosciences, 2022):

T1: MBP-AtYchF1 (Arabidopsis thaliana, UniProt Q9SA73)
T1 construct: gene YchF1; AtYchF1 cDNA in pMAL-C2, N-terminal MBP tag kept, E. coli BL21 (DE3)
T1 sequence (Q9SA73 1-394): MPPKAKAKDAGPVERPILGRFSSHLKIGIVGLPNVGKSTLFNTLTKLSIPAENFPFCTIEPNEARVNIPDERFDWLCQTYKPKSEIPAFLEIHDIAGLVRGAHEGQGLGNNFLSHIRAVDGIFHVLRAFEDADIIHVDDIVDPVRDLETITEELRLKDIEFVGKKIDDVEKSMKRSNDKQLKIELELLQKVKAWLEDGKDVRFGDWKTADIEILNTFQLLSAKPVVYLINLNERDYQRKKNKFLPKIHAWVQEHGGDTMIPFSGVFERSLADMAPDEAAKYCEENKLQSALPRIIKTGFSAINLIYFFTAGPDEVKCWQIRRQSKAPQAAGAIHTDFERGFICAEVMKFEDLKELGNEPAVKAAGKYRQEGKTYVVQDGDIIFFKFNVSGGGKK

B1: MBP-AtYchF1 (Arabidopsis thaliana) (protein)
chain: T1 sequence (Q9SA73 1-394)
notes: AtYchF1 cDNA in pMAL-C2, N-terminal MBP tag kept, E. coli BL21 (DE3)

Experiments:
MBP-AtYchF1 = target: T1, MBP-AtYchF1; assay: competition with Mant-GTP or Mant-ATP, fluorescence […]-500 nm; format: binding; details: 31 μM Mant-GTP or Mant-ATP; about 100 μM MBP-AtYchF1; competitive
purified protein [1] = substrate: Nc1nc2c(ncn2[C@@H]2O[C@H](COP(=O)(O)OP(=O)(O)O)[C@@H](OP(=O)(O)OP(=O)(O)O)[C@H]2O)c(=O)[nH]1; assay: purified protein; format: biochemical, Arabidopsis thaliana; details: 300 μM MBP-AtYchF1; room temperature; PPi release
purified protein [2] = substrate: Nc1nc2c(ncn2[C@@H]2O[C@H](COP(=O)(O)OP(=O)(O)OP(=O)(O)O)[C@@H](O)[C@H]2O)c(=O)[nH]1; assay: purified protein; format: biochemical, Arabidopsis thaliana; details: 300 μM MBP-AtYchF1; Pi release
purified protein [3] = substrate: Nc1ncnc2c1ncn2[C@@H]1O[C@H](COP(=O)(O)OP(=O)(O)OP(=O)(O)O)[C@@H](O)[C@H]1O; assay: purified protein; format: biochemical, Arabidopsis thaliana; details: 300 μM MBP-AtYchF1; Pi release

Molecule | competition with Mant-GTP or Mant-ATP, fluorescence 400-500 nm (MBP-AtYchF1) | Km (purified protein [1]) [mM] | Vmax (purified protein [1]) [µmol/min] | Km (purified protein [2]) [mM] | Vmax (purified protein [2]) [µmol/min] | Km (purified protein [3]) [mM] | Vmax (purified protein [3]) [µmol/min]
Nc1nc2c(ncn2[C@@H]2O[C@H](COP(=O)(O)OP(=O)(O)O)[C@@H](OP(=O)(O)OP(=O)(O)O)[C@H]2O)c(=O)[nH]1 [ppGpp] | ppGpp competed well against Mant-GTP and Mant-ATP for the binding of MBP-AtYchF1 | – | – | – | – | – | –
B1 | – | 2.235 ± 0.2943 | 0.0349 | 1.203 ± 0.1255 | 0.0924 | 1.278 ± 0.1838 | 0.0939
